Source: patent US20030180282A1, “Method of treatment of thrombotic events” (priority 2002, published 2003)

Columns and labels:
[1] = tested on: platelet-derived biomarkers; test: ASSENT-2 platelet substudy: ELISA of platelet-derived biomarkers in plasma of AMI patients; assay type: in vivo, human
Procedure: Forty-one patients with ST-segment elevation AMI enrolled in a single ASSENT-2 site (Rashid Hospital, Dubai, United Arab Emirates) were studied. The inclusion and exclusion criteria of ASSENT-2 have been previously reported ([no authors listed] (1999) Lancet 354:716-722). Briefly, patients included in the trial were between 18 and 70 years of age and were seen within 6 hours of symptom onset with >30 minutes of continuous symptoms. […] After informed consent was obtained, 7 serum samples were drawn. Samples were collected at baseline and at 30-minute intervals during a 180-minute period. Within 15 minutes of sample acquisition, plasma was separated by centrifugation at 800 g for 10 minutes, aspirated, placed in vials, and snapped frozen at −20° C.
Enzyme-linked immunosorbent assay (ELISA) was used according to standard sandwich techniques for CD 31 (sPECAM-1), sVACAM-1, sP-selectin, (R&D Systems Inc. Minneapolis, Minn.), beta-thromboglobulin, Asserachrom® (Diagnostica Stago Inc., Parsippany, N.J.), platelet factor 4 Asserachrom®, thromboxane, and prostacyclin (Cayman Chemical Co., MI). Each sample was measured in duplicate, and the overall intra-assay coefficient of variation was between 3.1%±0.4% and 7.6%±1.0%, with a plasma recovery rate between 89.7% and 98.7%.
(§1) For all comparisons, statistical analyses were done by using repeated measures ANOVA. Post hoc comparison was performed by use of the Bonferroni t-test to identify specific differences in platelet aggregation and receptor expression between patients treated with TNK and t-PA, and controls. The Mann-Whitney U test was used to analyze non-parametric data. Normally distributed data were expressed as mean±SE, and skewed data as median (range). Probability values of P<0.05 were regarded as statistically significant. Linear regression analysis was applied to normally distributed data for all study participants by using the Statview 4.1 program for analysis.
In the ASSENT-2 Platelet Substudy, 21 of the 41 patients enrolled received TNK (30-50 mg), while the remaining 20 received t-PA (40-85 mg). There were no substantial differences in baseline characteristics for the AMI patients.

platelets [2] = test: in vitro whole blood flow cytometry of platelet receptors and platelet-monocyte aggregates; assay type: cell-based, human; details: TNK 12 μg/mL, t-PA 4 μg/mL
Procedure: (§2) Blood samples for the in vitro study were obtained from 9 healthy volunteers. None of the subjects smoked or had hypertension, diabetes, or an abnormal hematocrit. None had received aspirin or any other antiplatelet drugs. All subjects underwent blood sampling after at least 30 minutes of rest and 2 or more hours of fasting. Blood was drawn from an antecubital vein between 8 am and 10 am in order to avoid any diurnal influence. A 21-gauge butterfly needle was used to draw blood into a tube containing 3.8% sodium citrate (1:9 volume); the first 1.5 mL of free running blood was discarded. One tube was kept as an internal control. A second tube was incubated with tenecteplase (TNK) for 30 minutes at room temperature in order to achieve a final concentration of 12 μg/mL. The third tube was similarly incubated with alteplase (t-PA) to achieve a concentration of 4 μg/mL. The concentrations of TNK and t-PA that were chosen approximated conventional plasma levels observed in patients receiving TNK and t-PA bolus (30 mg, and 15 mg, respectively; data on file, Genentech, Inc., South San Francisco, Calif.). Fresh solutions of TNK and t-PA were prepared in Dulbecco's phosphate buffered saline (DPBS) ex tempore on the morning of the platelet studies.
The surface expression of platelet receptors was determined by flow cytometry by using the following monoclonal antibodies: CD 41 (glycoprotein [GP] IIb/IIIa, α IIbβ3) CD 42b (GP Ib), CD 62p (P-selectin), CD 51/CD 61 (αvβ3, or vitronectin receptor), CD 31 (platelet endothelial cell adhesion molecule [PECAM]-1), CD 107a (LAMP-1), CD 107b (LAMP-2), CD 63 (LIMP or LAMP-3), and CD 151 (PETA-3) (PharMingen, San Diego, Calif.). Platelet-leukocyte interactions were assessed by using dual antibodies for a pan-platelet marker (CD 41), together with CD 14, a monocyte/macrophage marker. The blood-citrate mixture (50 μl) was diluted with 450 μl Tris buffered saline (TBS) (10 mmol/L Tris, 0.15 mol/L sodium chloride) and mixed by gently inverting an Eppendorf tube 2 times. The corresponding antibody was then added (5 μl) and incubated at 4° C. for 30 minutes. After incubation, 400 μl of 2% buffered paraformaldehyde was added for fixation. The samples were analyzed on a Becton Dickinson FACScan flow cytometer set up to measure fluorescent light scatter, as previously described. All parameters were collected by using 4-decade logarithmic amplification. The data were collected in list mode files and then analyzed. P-selectin was expressed as percent positive cells. Other antigens were expressed as log mean fluorescence intensity.
as §1

platelets [3] = test: rapid platelet-function assay (Ultegra); assay type: cell-based, human; details: TNK 12 μg/mL, t-PA 4 μg/mL
Procedure: as §2
With rapid platelet-function assay (RPFA (Ultegra®); Accumetrics, Inc., San Diego, Calif.), polystyrene beads coated with fibrinogen are placed in a cartridge along with a peptide that activates the thrombin receptor. A whole blood citrate mixture is added to the cartridge, and agglutination between platelets and coated beads is recorded. The data mirror turbidometric platelet aggregation and reflect the degree of platelet glycoprotein IIb/IIIa blockade.
For all comparisons, statistical analyses were done by using repeated measures ANOVA. Post hoc comparison was performed by use of the Bonferroni t-test to identify specific differences in platelet aggregation and receptor expression between patients treated with TNK and t-PA, and controls. […] Normally distributed data were expressed as mean±SE, and skewed data as median (range). […]

B1: t-PA: recombinant tissue plasminogen activator, thrombolytic agent (Genentech) (protein, UniProt P00750 36-562, looked up)
Tissue-type plasminogen …: SYQVICRDEKTQMIYQQHQSWLRPVLRSNRVEYCWCNSGRAQCHSVPVKSCSEPRCFNGGTCQQALYFSDFVCQCPEGFAGKCCEIDTRATCYEDQGISYRGTWSTAESGAECTNWNSSALAQKPYSGRRPDAIRLGLGNHNYCRNPDRDSKPWCYVFKAGKYSSEFCSTPACSEGNSDCYFGNGSAYRGTHSLTESGASCLPWNSMILIGKVYTAQNPSAQALGLGKHNYCRNPDGDAKPWCHVLKNRRLTWEYCDVPSCSTCGLRQYSQPQFRIKGGLFADIASHPWQAAIFAKHRRSPGERFLCGGILISSCWILSAAHCFQERFPPHHLTVILGRTYRVVPGEEEQKFEVEKYIVHKEFDDDTYDNDIALLQLKSDSSRCAQESSVVRTVCLPPADLQLPDWTECELSGYGKHEALSPFYSERLKEAHVRLYPSSRCTSQHLLNRTVTDNMLCAGDTRSGGPQANLHDACQGDSGGPLVCLNDGRMTLVGIISWGLGCGQKDVPGVYTKVTNYLDWIRDNMRP
P-selectin plasma concentrations, course ([1]; 180-minute period): increase steadily
plasma levels of PECAM-1 ([1]; AMI patients after thrombolysis): not in t-PA-treated patients
release of substances from platelets (plasma biomarkers) ([1]; TNK 30-50 mg, t-PA 40-85 mg, 180-minute period): decreased release
vascular cell adhesion molecule-1 (VCAM-1) release ([1]; after 90 minutes): no marked changes
concentrations of α-granule constituents ([1]; to a lesser extent than TNK): Decreased concentrations
expression of PECAM-1 compared with saline-treated samples (platelets [2]): trend toward diminished expression
expression of glycoprotein IIb/IIIa compared with saline-treated samples (platelets [2]): reduced expression
formation of platelet-monocyte aggregates compared with saline-treated samples (platelets [2]): trend toward diminished
platelet activation units (Ultegra) compared with DPBS (platelets [3]): reduction
